{"source": "paper PMC3775092", "target": "KillerRed", "assay": "SEC", "data": [{"substance": "KillerRed", "values": [{"measurement": "stoichiometry N", "result": 2}]}]}
